Consider 1 molecule from doi:10.1101/2020.11.18.388926.

The series deals with T1, Fur (Pseudomonas aeruginosa, UniProt Q03456 1-134).
T1 sequence: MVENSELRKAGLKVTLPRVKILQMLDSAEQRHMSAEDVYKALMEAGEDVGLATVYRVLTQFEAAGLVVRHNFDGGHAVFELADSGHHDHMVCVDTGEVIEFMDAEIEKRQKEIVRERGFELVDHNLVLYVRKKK
The experiment in a line: fluorescence anisotropy.

B1: prrF1-30 (dsDNA)
DNA 1: GACATGGAAATGAGAATCATTATTATGTC
DNA 2: GACATAATAATGATTCTCATTTCCATGTC
One may read the Kd as the free concentration of one partner at which half of the binding sites on the other are occupied at equilibrium, for simple one-to-one binding. Read a high Kd as a looser complex. For B1, the Kd amounted to 0.05 ± 0.01 µM.
